Experimental findings from patent publication US20230272119A1 (MARENGO THERAPEUTICS, published 2023) are described below.

Test [1] has as its target T1, α-activin receptors heavy-LgBiT (SEQ ID NO: 149).
T1 construct: VH-CH1-linker-LgBiT; germline VH1-46*01
The experiment in a line: NanoBiT, HC-LgBiT:LC-SmBiT:competing LC 1:1:1; competing kappa LC m6 (SEQ ID NO: 97).

For test [2], the target named is T1, α-activin receptors heavy-LgBiT (SEQ ID …). The experiment in a line: NanoBiT, HC-LgBiT:LC-SmBiT:competing LC 1:1:1; competing kappa LC m9 (SEQ ID NO: 100).
Test [3] has the same target. The experiment in a line: NanoBiT, HC-LgBiT:LC-SmBiT:competing LC 1:1:1; competing kappa LC m12 (SEQ ID NO: 103).
The target is the same in test [4]. The experiment in a line: NanoBiT, HC-LgBiT:LC-SmBiT:competing LC 1:1:1; competing kappa LC m24 (SEQ ID NO: 115).
Test [5] has the same target. The experiment in a line: NanoBiT, HC-LgBiT:LC-SmBiT:competing LC 1:1:1; competing kappa LC m27 (SEQ ID NO: 118).
For test [6] the target is unchanged. The experiment in a line: NanoBiT, HC-LgBiT:LC-SmBiT:competing LC 1:1:1; competing kappa LC m33 (SEQ ID NO: 124).
For test [7] the target is unchanged. The experiment in a line: NanoBiT, HC-LgBiT:LC-SmBiT:competing LC 1:1:1; competing kappa LC m42 (SEQ ID NO: 133).
Test [8] has as its target T2, α-IGF1R heavy-LgBiT (SEQ ID NO: 116).
T2 construct: VH-CH1-linker-LgBiT; germline VH3-23*01
The experiment in a line: NanoBiT, HC-LgBiT:LC-SmBiT:competing LC 1:1:1; competing lambda LC m54 (SEQ ID NO: 145).

Test [9] shares this target. The experiment in a line: NanoBiT, HC-LgBiT:LC-SmBiT:competing LC 1:1:1; competing lambda LC m60 (SEQ ID NO: 151).
Test [10] shares this target. The experiment in a line: NanoBiT, HC-LgBiT:LC-SmBiT:competing LC 1:1:1; competing lambda LC m66 (SEQ ID NO: 157).
For test [11] the target is unchanged. The experiment in a line: NanoBiT, HC-LgBiT:LC-SmBiT:competing LC 1:1:1; competing lambda LC m69 (SEQ ID NO: 160).
For test [12] the target is unchanged. The experiment in a line: NanoBiT, HC-LgBiT:LC-SmBiT:competing LC 1:1:1; competing lambda LC m72 (SEQ ID NO: 163).
Test [13] addresses T3, α-IL12β heavy-LgBiT (SEQ ID NO: 161).
T3 construct: VH-CH1-linker-LgBiT; germline VH3-33*01
The experiment in a line: NanoBiT, HC-LgBiT:LC-SmBiT:competing LC 1:1:1; competing kappa LC m6 (SEQ ID NO: 97).

Test [14] has the same target. The experiment in a line: NanoBiT, HC-LgBiT:LC-SmBiT:competing LC 1:1:1; competing kappa LC m9 (SEQ ID NO: 100).
The target is the same in test [15]. The experiment in a line: NanoBiT, HC-LgBiT:LC-SmBiT:competing LC 1:1:1; competing kappa LC m12 (SEQ ID NO: 103).
The target is the same in test [16]. The experiment in a line: NanoBiT, HC-LgBiT:LC-SmBiT:competing LC 1:1:1; competing kappa LC m15 (SEQ ID NO: 106).
Test [17] shares this target. The experiment in a line: NanoBiT, HC-LgBiT:LC-SmBiT:competing LC 1:1:1; competing kappa LC m18 (SEQ ID NO: 109).
In test [18] the target is T4, α-CTLA4 heavy-hCHIg_Knob_Cys (SEQ ID NO: 168) (Homo sapiens (Human), UniProt P0DOX5 1-449 = IgG part).
T4 construct: full heavy chain, human Fc knob; Fab analysed after papain cleavage in the MS assay; germline VH3-30*01; also called HCP2 of multispecific molecules 3, 4, 5, 9
The experiment in a line: intact MS of papain-cleaved multispecific molecule 4; mispaired Fab observed (observed mass, Da).

For test [19], the target named is T5, α-TNFR10β heavy-hCHIg_Hole_Cys (SEQ ID NO: 177).
T5 construct: full heavy chain, human Fc hole; Fab analysed after papain cleavage in the MS assay; also called α-TRAILR2 arm first chain; HCP1 of multispecific molecules 4, 6, 12
The experiment in a line: intact MS of papain-cleaved multispecific molecule 4; Fab of this pairing observed (observed mass, Da).

Test [20] concerns the target T6, α-CTLA4 heavy-hCHIg_Knob_Cys-GH_scFv (SEQ ID NO: 169).
T6 construct: full heavy chain, human Fc knob, C-terminal scFv; germline VH3-30*01; also called HCP2 of multispecific molecule 12
The experiment in a line: KappaSelect resin analysis of multispecific molecule 12, reduced gel; said to agree with lambda light chain pairing with the kappa heavy chain in molecule 4.

The target in test [21] is T7, α-CD221 heavy-hCHIg_Hole_Cys (SEQ ID NO: 180).
T7 construct: full heavy chain, human Fc hole; Fab analysed after papain cleavage in the MS assay; germline VH1-69*01; also called HCP1 of multispecific molecule 5
The experiment in a line: intact MS of papain-cleaved multispecific molecule 5; Fab of this pairing observed (observed mass, Da).

In test [22] the target is T8, α-CSF2 heavy-LgBiT (SEQ ID NO: 101).
T8 construct: VH-CH1-linker-LgBiT; germline VH1-3*01
The experiment in a line: NanoBiT, HC-LgBiT:LC-SmBiT:competing LC 1:1:1; competing lambda LC m48 (SEQ ID NO: 139).

Test [23] shares this target. The experiment in a line: NanoBiT, HC-LgBiT:LC-SmBiT:competing LC 1:1:1; competing lambda LC m66 (SEQ ID NO: 157).
Test [24] has the same target. The experiment in a line: NanoBiT, HC-LgBiT:LC-SmBiT:competing LC 1:1:1; competing lambda LC m69 (SEQ ID NO: 160).
Test [25] shares this target. The experiment in a line: NanoBiT, HC-LgBiT:LC-SmBiT:competing LC 1:1:1; competing lambda LC m72 (SEQ ID NO: 163).
For test [26], the target named is T9, α-TRAILR2 heavy-LgBiT (SEQ ID NO: 146).
T9 construct: VH-CH1-linker-LgBiT; germline VH3-20*01
The experiment in a line: NanoBiT, HC-LgBiT:LC-SmBiT:competing LC 1:1:1; competing kappa LC m6 (SEQ ID NO: 97).

The target is the same in test [27]. The experiment in a line: NanoBiT, HC-LgBiT:LC-SmBiT:competing LC 1:1:1; competing kappa LC m12 (SEQ ID NO: 103).
Test [28] shares this target. The experiment in a line: NanoBiT, HC-LgBiT:LC-SmBiT:competing LC 1:1:1; competing kappa LC m15 (SEQ ID NO: 106).
For test [29] the target is unchanged. The experiment in a line: NanoBiT, HC-LgBiT:LC-SmBiT:competing LC 1:1:1; competing kappa LC m18 (SEQ ID NO: 109).
Test [30] shares this target. The experiment in a line: NanoBiT, HC-LgBiT:LC-SmBiT:competing LC 1:1:1; competing kappa LC m21 (SEQ ID NO: 112).
Test [31] has the same target. The experiment in a line: NanoBiT, HC-LgBiT:LC-SmBiT:competing LC 1:1:1; competing kappa LC m24 (SEQ ID NO: 115).
Test [32] has the same target. The experiment in a line: NanoBiT, HC-LgBiT:LC-SmBiT:competing LC 1:1:1; competing kappa LC m42 (SEQ ID NO: 133).

Substitutions are numbered along the chain they refer to.

B1: α-activin receptors light-SmBiT (SEQ ID NO: 150) (other)
light: QSALTQPASVSGSPGQSITISCTGTSSDVGSYNYVNWYQQHPGKAPKLMIYGVSKRPSGVSNRFSGSKSGNTASLTISGLQAEDEADYYCGTFAGGSYYGVFGGGTKLTVLGQPKANPTVTLFPPSSEELQANKATLVCLISDFYPGAVTVAWKADGSPVKAGVETTKPSKQSNNKYAASSYLSLTPEQWKSHRSYSCQVTHEGSTVEKTVAPTECSGSSGGGGSGGGGSSGGVTGYRLFEEIL
notes: lambda light chain-linker-SmBiT; germline Vl2-14*01
Take B1: the Percent pairing in test [1] came out at 90%; in [2], 90%; in test [3] it was 81%; in test [4] it was 75%; in [5], 79%; in test [6] it was 100%. Further, in test [7], the Percent pairing stood at 87%.

B2: α-IGF1R light-SmBiT (SEQ ID NO: 117) (other)
light: DIQMTQSPSSLSASLGDRVTITCRASQGISSYLAWYQQKPGKAPKLLIYAKSTLQSGVPSRFSGSGSGTDFTLTISSLQPEDSATYYCQQYWTFPLTFGGGTKVEIKRTVAAPSVFIFPPSDEQLKSGTASVVCLLNNFYPREAKVQWKVDNALQSGNSQESVTEQDSKDSTYSLSSTLTLSKADYEKHKVYACEVTHQGLSSPVTKSFNRGECGSSGGGGSGGGGSSGGVTGYRLFEEIL
notes: kappa light chain-linker-SmBiT; germline Vk1-27*01
As for B2, the Percent pairing in test [8] amounted to 84%; in [9], 81%; in test [10] it was 95%; in [11], 100%; in test [12], 96%.

B3: α-IL12β light-SmBiT (SEQ ID NO: 162) (other)
light: QSVLTQPPSVSGAPGQRVTISCSGSRSNIGSNTVKWYQQLPGTAPKLLIYYNDQRPSGVPDRFSGSKSGTSASLAITGLQAEDEADYYCQSYDRYTHPALLFGTGTKVTVLGQPKANPTVTLFPPSSEELQANKATLVCLISDFYPGAVTVAWKADGSPVKAGVETTKPSKQSNNKYAASSYLSLTPEQWKSHRSYSCQVTHEGSTVEKTVAPTECSGSSGGGGSGGGGSSGGVTGYRLFEEIL
notes: lambda light chain-linker-SmBiT; germline Vl1-44*01
On to B3, for which the Percent pairing in test [13] is 100%; in [14] it was 100%; in test [15] it was 100%; in [16], 100%; in test [17], 80%.

B4: α-TRAILR2 light (SEQ ID NO: 148) (other)
light: SSELTQDPAVSVALGQTVRITCQGDSLRSYYASWYQQKPGQAPVLVIYGKNNRPSGIPDRFSGSSSGNTASLTITGAQAEDEADYYCNSRDSSGNHVVFGGGTKLTVLGQPKANPTVTLFPPSSEELQANKATLVCLISDFYPGAVTVAWKADGSPVKAGVETTKPSKQSNNKYAASSYLSLTPEQWKSHRSYSCQVTHEGSTVEKTVAPTECS
notes: unmodified lambda light chain; germline Vl3-19*01; also called LLCP of multispecific molecules 4, 6, 12
Take B4: the binding result in test [18], in test [19] and in [20] was “binds” throughout.

B5: α-CD221 light (SEQ ID NO: 136) (other)
light: B4 light with S33T, V44I, K50E, N52K, N88K, S92G, N95Q, V97L
notes: unmodified lambda light chain; germline Vl3-19*01; also called LLCP of multispecific molecule 5
In the case of B5, the binding result in test [21] was “binds”.

B6: α-CSF2 light-SmBiT (SEQ ID NO: 102) (other)
light: EIVLTQSPATLSVSPGERATLSCRASQSVGTNVAWYQQKPGQAPRVLIYSTSSRATGITDRFSGSGSGTDFTLTISRLEPEDFAVYYCQQFNKSPLTFGGGTKVEIKRTVAAPSVFIFPPSDEQLKSGTASVVCLLNNFYPREAKVQWKVDNALQSGNSQESVTEQDSKDSTYSLSSTLTLSKADYEKHKVYACEVTHQGLSSPVTKSFNRGECGSSGGGGSGGGGSSGGVTGYRLFEEIL
notes: kappa light chain-linker-SmBiT; germline Vk3D-20*01
As to B6, the Percent pairing in test [22] came out at 100%; in test [23], 93%; in [24] it was 98%; in test [25], 83%.

B7: α-TRAILR2 light-SmBiT (SEQ ID NO: 147) (other)
light: SSELTQDPAVSVALGQTVRITCQGDSLRSYYASWYQQKPGQAPVLVIYGKNNRPSGIPDRFSGSSSGNTASLTITGAQAEDEADYYCNSRDSSGNHVVFGGGTKLTVLGQPKANPTVTLFPPSSEELQANKATLVCLISDFYPGAVTVAWKADGSPVKAGVETTKPSKQSNNKYAASSYLSLTPEQWKSHRSYSCQVTHEGSTVEKTVAPTECSGSSGGGGSGGGGSSGGVTGYRLFEEIL
notes: lambda light chain-linker-SmBiT; germline Vl3-19*01
For B7, the Percent pairing in [26] worked out at 100%; in test [27] it was 84%; in [28] it was 77%; in test [29], 100%; in test [30] it was 100%; in test [31] it was 81%. The molecule further displayed a Percent pairing in [32] of 100%.
